{
  "source": "paper PMC11650997",
  "about": "(Journal of Virology, 2024)",
  "binders": {"B1": {"name": "pT1616 (human monoclonal antibody, IgG1) (antibody, V domains shown)", "VH": "QVQLVQSGAEVKKPGSSVKVSCKASGGTFSSYTISWVRQAPGQGLECMGRIIPILGIANYAQKFQGRVTITADKSTSIAYMEVSSLRSEDTAVYYCATEVGYSGYGSAEYFNHWGQGTPVTVSS", "VL": "QSVLTQPPSVSGAPGQRVTISCTGSNSNIGAGYDVHWYQQLPGTAPKLLIYANNNRPSGVPDRFSGSRSGTSASLVITGLQADDEADYYCQSYDSSLTGSLFGGGTKLTVL", "notes": "also called bnAb pT1616; nAb pT1616; source: HEK293ExPi, transfected, purified from the supernatant (Protein G, SEC)"}, "B2": {"name": "pT1616 IgG1 (antibody, V domains shown)", "VH": "B1 VH", "VL": "B1 VL", "notes": "also called bnAb pT1616; nAb pT1616; source: HEK293ExPi, transfected, purified from supernatant (Protein G, SEC)"}},
  "key": {"[1]": {"target": "T1, SARS-CoV-2 S protein ectodomain trimer, prefusion conformation, insect cell-expressed (SARS-CoV-2 Wuhan-Hu-1 (MN908947), UniProt P0DTC2, stabilised)", "T1 construct": "also called S trimer; trimeric S protein", "assay": "SPR; […] (100 nM, 30 s) […]; 1:1 Langmuir fit", "details": "both partners purified"}, "[2]": {"target": "T2, SARS-CoV-2 S protein ectodomain trimer in prefusion conformation (insect cell-expressed) (SARS-CoV-2 Wuhan-Hu-1 (MN908947), UniProt P0DTC2, stabilised)", "T2 construct": "also called trimeric SARS-CoV-2 S protein; S trimer", "assay": "SPR; […] (100 nM) […]; 1:1 Langmuir fit", "details": "both partners purified"}},
  "data": [
    {"binder": "B1", "values": [
      {"measurement": "Kd", "setting": "[1]", "result": 0.083, "unit": "nM"},
      {"measurement": "koff", "setting": "[1]", "result": "6.9e-05", "unit": "s⁻¹"},
      {"measurement": "kon", "setting": "[1]", "result": 840000, "unit": "M⁻¹ s⁻¹"}
    ]},
    {"binder": "B2", "values": [
      {"measurement": "fold lower KD for the S trimer than for the monomeric RBD", "setting": "[2]", "result": "> 3", "unit": "fold"}
    ]}
  ]
}
